{
  "source": "patent US20260055441A1",
  "about": "“A PCR-ELISA ANALOGOUS ANTIBODY-FREE METHOD FOR DETECTING A TARGET NUCLEIC ACID IN A SAMPLE” (UNIVERSITÄT HEIDELBERG, priority 2022, published 2026)",
  "key": {"[1]": {"conditions": "published values, source mark b or d legible; cited from earlier work"}, "[2]": {"target": "T1, dU-triazole-PEG3-ULR dimer (21) (not fully specified)", "T1 chain": "ULR"}, "[3]": {"target": "T2, latent papain forms P20-P28 (Carica papaya, UniProt P00784)", "T2 construct": "purchased Sigma Aldrich (Munich, Germany); host or cells: Papaya latex (natural source)", "T2 sequence (P00784 134-345)": "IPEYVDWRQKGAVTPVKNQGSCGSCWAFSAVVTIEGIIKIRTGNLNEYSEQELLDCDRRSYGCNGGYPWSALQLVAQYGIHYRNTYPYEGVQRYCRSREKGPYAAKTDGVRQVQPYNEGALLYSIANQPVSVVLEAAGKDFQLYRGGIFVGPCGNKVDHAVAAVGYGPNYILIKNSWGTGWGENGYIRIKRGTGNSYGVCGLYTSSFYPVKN", "assay": "Comparison of reactivation efficiencies of latent papain forms with activator dU-triazole-PEG3-ULR (21) (FIG. 15, 16)", "type": "biochemical", "conditions": "for normalized rate/rate blank after reactivation, in words / reaction rate of substrate hydrolysis after reactivation (not normalized), in words: activator dU-triazole-PEG3-ULR (21) 1-15 nM; for normalized rate/rate blank after reactivation, in words: papain 1 nM (FIG. 16); for reaction rate of substrate hydrolysis after reactivation (not normalized), in words: papain 1 nM (FIG. 15)", "procedure": "In order to reversibly deactivate commercially purchased papain, reactions with different thiosulfonate derivatives were carried out and different latent papain versions were produced. Papain was first incubated with cysteine to yield complete activated papain which could then be incubated and deactivated with the specific thiosulfonate solutions. A mixture of papain disulfides is otherwise to be expected. An additional step was introduced in this work with the goal of further reduction of residual enzymatic activity. After incubation with either thiosulfonate derivative, papain was thus incubated with equimolar amounts of the more efficient irreversible inhibitor E64 (see Example 5, 5.2.1.2) in order to deactivate possible unmodified papain traces. The excess of small molecules was then separated by Sephadex G25 spin columns. Different thiosulfonates were synthesized (data not shown) and used to produce different latent papain forms, to the authors best knowledge yet unknown to literature (P23, P24 and P26), with their reactivation efficiency directly compared. The four thiosulfonates S-benzyl (1)-, S-propyl (2)-, S-(2-acetic acid) (3)- and S-(2-aminoethyl) (5)-ethanethiosulfonate are shown in FIGS. 6 and 13.\nAll latent papain forms were synthesized as described (see Example 5, 5.2.1.2) and concentrations of the stock solutions were determined (see Example 5, 5.2.1.3) and are shown in FIG. 14. In favor of allowing for precise comparison of all different papain forms, papain P20-28 were produced and processed simultaneously, whereas production of P28 differed in lack of pre-activation with cysteine and incubation with E64 in order to examine if those two steps are indeed affecting the latent papain quality (P20 vs. P28).\nThe successfully produced latent papain forms were then utilized in a reactivation assay in accordance with the method of the invention (see Example 5, 5.2.2.2), fluorometric method 1) with the selenocysteine containing activator dU-triazole-PEG3-ULR (21) in concentrations from 1 nM-15 nM. The resulting reaction rates of every papain and every activator concentration are directly compared in FIG. 15.\nOn second look, it becomes clear that the calculated rates have to be considered in relation to the residual papain activity. Without activator present, the rates of papain differ greatly between the latent derivatives. This must be due solely to their chemical properties and not to a result of remaining active papain after incubation with thiosulfonate, because subsequent incubation with equimolar amounts of E64 inhibitor will inevitably deactivate remaining active papain irreversibly (see Example 5, 5.2.1.2). In order to normalize the presented reaction rates, they were divided through the reaction rate of the corresponding residual activity (blank value) and results are shown in FIG. 16.\nDifferent assays of reactivating latent papain in solution were conducted in the course of this work. Various buffer compositions, supplements, 96 well plates, substrates, activators, concentrations as well as different latent papain forms were compared. In order to get an overview of all experiments, a standard method is described in the following and variations of this method are subsequently defined. First, the well buffer was prepared (0.1 M phosphate buffer pH 7, 4 mM EDTA, 0.01% Brij35). A 1 mM TCEP solution was prepared with 3 mM NaOH in 0.1 M Tris-HCl buffer pH 8. Papain substrate (Z-Phe-Arg-AMC or Suc-Leu-Leu-Val-Tyr-AMC) was prepared as a 200 μM solution in water and transferred equally to a PCR strip. Three serial dilutions of the activating agent with well buffer were used in the different experiments and the corresponding pipetting schemes are shown in Table 9. Papain was diluted to 0.1 μM with well buffer and transferred equally to a PCR strip. After preparation of the abovementioned solutions, TCEP (1 mM solution) was added to well buffer to yield a final TCEP concentration of 1.1 μM. […]"}},
  "note": "Entries after “also recorded” stand apart in the source; their conditions may differ. Marks after values point to notes of the source that are not given here.",
  "data": [
    {"molecule": "Sc1ccc(Br)cc1", "note": "[4-Bromothiophenol]", "values": [
      {"measurement": "pKa (H2O)", "setting": "[1]", "result": "6.0^b"}
    ]},
    {"molecule": "COc1ccc(S)cc1", "note": "[4-Methoxythiophenol]", "values": [
      {"measurement": "pKa (H2O)", "setting": "[1]", "result": "6.8^b"}
    ]},
    {"molecule": "latent papain P23 (-S-S-(CH2)2-NH2) (protein) IPEYVDWRQKGAVTPVKNQGSCGSCWAFSAVVTIEGIIKIRTGNLNEYSEQELLDCDRRSYGCNGGYPWSALQLVAQYGIHYRNTYPYEGVQRYCRSREKGPYAAKTDGVRQVQPYNEGALLYSIANQPVSVVLEAAGKDFQLYRGGIFVGPCGNKVDHAVAAVGYGPNYILIKNSWGTGWGENGYIRIKRGTGNSYGVCGLYTSSFYPVKN", "values": [
      {"measurement": "reaction rate of Z-Phe-Arg-AMC hydrolysis after reactivation of latent papain (1 nM) with activator 1-15 nM", "setting": "[2]", "result": "papain P23, containing the positively charged amino group, was found to be by far the most efficiently reactivated latent papain form"}
    ]},
    {"molecule": "P24: latent papain form with negatively charged acetic acid disulfide residue (protein) IPEYVDWRQKGAVTPVKNQGSCGSCWAFSAVVTIEGIIKIRTGNLNEYSEQELLDCDRRSYGCNGGYPWSALQLVAQYGIHYRNTYPYEGVQRYCRSREKGPYAAKTDGVRQVQPYNEGALLYSIANQPVSVVLEAAGKDFQLYRGGIFVGPCGNKVDHAVAAVGYGPNYILIKNSWGTGWGENGYIRIKRGTGNSYGVCGLYTSSFYPVKN", "values": [
      {"measurement": "normalized rate/rate blank after reactivation, in words", "setting": "[3]", "result": "low normalized rates"}
    ]},
    {"molecule": "latent papain P25 (-S-S-(CH2)2-CH3) (protein) IPEYVDWRQKGAVTPVKNQGSCGSCWAFSAVVTIEGIIKIRTGNLNEYSEQELLDCDRRSYGCNGGYPWSALQLVAQYGIHYRNTYPYEGVQRYCRSREKGPYAAKTDGVRQVQPYNEGALLYSIANQPVSVVLEAAGKDFQLYRGGIFVGPCGNKVDHAVAAVGYGPNYILIKNSWGTGWGENGYIRIKRGTGNSYGVCGLYTSSFYPVKN", "values": [
      {"measurement": "normalized ratio rate/rate blank of substrate hydrolysis after reactivation of latent papain (1 nM) with activator 1-15 nM", "setting": "[2]", "result": "The second aliphatic residue of P25 showed surprisingly low reactivation potential towards the activator"}
    ]},
    {"molecule": "P23: latent papain form with positively charged aminoethyl disulfide residue (protein) IPEYVDWRQKGAVTPVKNQGSCGSCWAFSAVVTIEGIIKIRTGNLNEYSEQELLDCDRRSYGCNGGYPWSALQLVAQYGIHYRNTYPYEGVQRYCRSREKGPYAAKTDGVRQVQPYNEGALLYSIANQPVSVVLEAAGKDFQLYRGGIFVGPCGNKVDHAVAAVGYGPNYILIKNSWGTGWGENGYIRIKRGTGNSYGVCGLYTSSFYPVKN", "values": [
      {"measurement": "reaction rate of substrate hydrolysis after reactivation (not normalized), in words", "setting": "[3]", "result": "by far the most efficiently reactivated latent papain form"}
    ]},
    {"molecule": "latent papain P24 (-S-S-CH2-COOH) (protein) IPEYVDWRQKGAVTPVKNQGSCGSCWAFSAVVTIEGIIKIRTGNLNEYSEQELLDCDRRSYGCNGGYPWSALQLVAQYGIHYRNTYPYEGVQRYCRSREKGPYAAKTDGVRQVQPYNEGALLYSIANQPVSVVLEAAGKDFQLYRGGIFVGPCGNKVDHAVAAVGYGPNYILIKNSWGTGWGENGYIRIKRGTGNSYGVCGLYTSSFYPVKN", "values": [
      {"measurement": "normalized ratio rate/rate blank of substrate hydrolysis after reactivation of latent papain (1 nM) with activator 1-15 nM", "setting": "[2]", "result": "featured low normalized rates as seen for P24"},
      {"measurement": "reaction rate of Z-Phe-Arg-AMC hydrolysis after reactivation of latent papain (1 nM) with activator 1-15 nM", "setting": "[2]", "result": "Papain P24 with its negatively charged residue showed reaction rates close to Papain P20 with the methyl residue"}
    ]},
    {"molecule": "P25: latent papain form with propyl disulfide residue (protein) IPEYVDWRQKGAVTPVKNQGSCGSCWAFSAVVTIEGIIKIRTGNLNEYSEQELLDCDRRSYGCNGGYPWSALQLVAQYGIHYRNTYPYEGVQRYCRSREKGPYAAKTDGVRQVQPYNEGALLYSIANQPVSVVLEAAGKDFQLYRGGIFVGPCGNKVDHAVAAVGYGPNYILIKNSWGTGWGENGYIRIKRGTGNSYGVCGLYTSSFYPVKN", "values": [
      {"measurement": "normalized rate/rate blank after reactivation, in words", "setting": "[3]", "result": "surprisingly low reactivation potential"}
    ]},
    {"molecule": "latent papain P26 (S-S-CH2-C6H5) (protein) IPEYVDWRQKGAVTPVKNQGSCGSCWAFSAVVTIEGIIKIRTGNLNEYSEQELLDCDRRSYGCNGGYPWSALQLVAQYGIHYRNTYPYEGVQRYCRSREKGPYAAKTDGVRQVQPYNEGALLYSIANQPVSVVLEAAGKDFQLYRGGIFVGPCGNKVDHAVAAVGYGPNYILIKNSWGTGWGENGYIRIKRGTGNSYGVCGLYTSSFYPVKN", "values": [
      {"measurement": "normalized ratio rate/rate blank of substrate hydrolysis after reactivation of latent papain (1 nM) with activator 1-15 nM", "setting": "[2]", "result": "papain P26 showed the third highest normalized rate values"},
      {"measurement": "reaction rate of Z-Phe-Arg-AMC hydrolysis after reactivation of latent papain (1 nM) with activator 1-15 nM", "setting": "[2]", "result": "The papain variant P26 with its benzyl residue showed greatly reduced rates when compared to all other variants"}
    ]},
    {"molecule": "P26: latent papain form with benzyl disulfide residue (protein) IPEYVDWRQKGAVTPVKNQGSCGSCWAFSAVVTIEGIIKIRTGNLNEYSEQELLDCDRRSYGCNGGYPWSALQLVAQYGIHYRNTYPYEGVQRYCRSREKGPYAAKTDGVRQVQPYNEGALLYSIANQPVSVVLEAAGKDFQLYRGGIFVGPCGNKVDHAVAAVGYGPNYILIKNSWGTGWGENGYIRIKRGTGNSYGVCGLYTSSFYPVKN", "values": [
      {"measurement": "reaction rate of substrate hydrolysis after reactivation (not normalized), in words", "setting": "[3]", "result": "greatly reduced rates"},
      {"measurement": "normalized rate/rate blank after reactivation, in words", "setting": "[3]", "result": "third highest normalized rate values"}
    ]},
    {"molecule": "P20: latent papain, methyl mixed disulfide, with cysteine pre-activation and E64 (protein) IPEYVDWRQKGAVTPVKNQGSCGSCWAFSAVVTIEGIIKIRTGNLNEYSEQELLDCDRRSYGCNGGYPWSALQLVAQYGIHYRNTYPYEGVQRYCRSREKGPYAAKTDGVRQVQPYNEGALLYSIANQPVSVVLEAAGKDFQLYRGGIFVGPCGNKVDHAVAAVGYGPNYILIKNSWGTGWGENGYIRIKRGTGNSYGVCGLYTSSFYPVKN", "values": [
      {"measurement": "normalized rate/rate blank after reactivation, in words", "setting": "[3]", "result": "highest of all papain forms; also recorded: twice as high as P28"},
      {"measurement": "residual activity rate compared to P23", "setting": "[3]; without activator (blank), papain 1 nM", "result": 25, "unit": "%"}
    ]}
  ]
}
